Assay results: IntAct's records for PubMed 17035250

B1: Fibulin-5 (Homo sapiens), Q9UBX5 (parent)
chain: MPGIKRILTVTILALCLPSPGNAQAQCTNGFDLDRQSGQCLDIDECRTIPEACRGDMMCVNQNGGYLCIPRTNPVYRGPYSNPYSTPYSGPYPAAAPPLSAPNYPTISRPLICRFGYQMDESNQCVDVDECATDSHQCNPTQICINTEGGYTCSCTDGYWLLEGQCLDIDECRYGYCQQLCANVPGSYSCTCNPGFTLNEDGRSCQDVNECATENPCVQTCVNTYGSFICRCDPGYELEEDGVHCSDMDECSFSEFLCQHECVNQPGTYFCSCPPGYILLDDNRSCQDINECEHRNHTCNLQQTCYNLQGGFKCIDPIRCEEPYLRISDNRCMCPAENPGCRDQPFTILYRDMDVVSGRSVPADIFQMQATTRYPGAYYIFQIKSGNEGREFYMRQTGPISATLVMTRPIKGPREIQLDLEMITVNTVINFRGSSVIRLRIYVSQYPF

Variants of: B1
Settings: with eln_bovin ELN

Variant	effect of a mutation on the interaction
C217R	decreasing interaction strength
S227P	decreasing interaction strength
